Here are results for one substance from US9650419B2, “Biocompatible protein, biocompatible protein gel and biocompatible conducting protein gel comprising the protein and method for preparing the same” (Research & Business Foundation SUNGKYUNKWAN UNIVERSITY, priority 2014, dated 2017).

The series concerns the target T1, trypsin (Bos taurus, UniProt P00760).
T1 construct: gene PRSS1
T1 sequence (P00760 24-246): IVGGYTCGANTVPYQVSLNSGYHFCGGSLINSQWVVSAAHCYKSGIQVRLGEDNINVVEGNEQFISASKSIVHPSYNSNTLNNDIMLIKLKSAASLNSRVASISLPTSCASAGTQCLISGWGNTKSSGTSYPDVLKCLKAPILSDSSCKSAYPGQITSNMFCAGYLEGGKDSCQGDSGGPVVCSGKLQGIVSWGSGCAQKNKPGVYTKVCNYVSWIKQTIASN
As to the kind of experiment: proteolytic susceptibility with trypsin (HPLC, MALDI-TOF). In kind it is in vitro ADME. Particulars: 100 μM peptide stock, 200 μM protease stock, TBS buffer pH 7.5, one, seven, thirty days at room temperature. How it is done: In order to confirm whether β-peptide is degraded by a protease, proteolytic susceptibility of β-VhexS was measured with trypsin, chymotrypsin, and subtilisin which cleave protein nonspecifically. Peptide and pretease stock solution was prepared by desolving 100 μM of beta-VhexS and 200 μM of each pretease in TBS buffer at pH 7.5. 10 μL of stock solution. 40 μL of peptide stock solution and 10 μL of protease stock solution were transferred into micro tube and incubated for one, seven, thirty days at room temperature. The reaction was quenched with adding 100 μL of 1% TFA solution. As a control sample, 40 μL of peptide stock solution without protease was also treated with 1% TFA solution.
Degree of peptide degradation was analyzed with high performance liquid chromatography using C3 column for Agilent analysis. […] The HPLC peaks of both standard sample and enzyme treated peptide sample were compared, and the peaks appeared only for enzyme treated sample were analyzed with MALDI-TOF. The results confirmed that β-peptide was not degraded by enzymes.

As for “Ac-KVK EVF FVK EVF FVK EVY-NH2 (Ac-KVKEVFFVKEVFFVKEVY-NH2; also: beta-amino acids, places not given here) [β-peptide]”, the “degradation of peptide by protease” value is recorded as “not degraded”.
